This assay has as its target actin filaments (rabbit muscle actin, polymerized) (rabbit, UniProt P68135 1-377). Kind of assay: co-sedimentation; high-speed cosedimentation; 3 uM actin (AFs) with 0.25-8 uM FH1FH2; bound against free protein fitted with a hyperbolic function; three independent experiments; methods in the supplement. Conditions: both partners purified.

B1: OsFH15 FH2 (truncated recombinant protein containing the FH2 domain of OsFH15) (domain or fragment)
chain: not shown
notes: OsFH15, class I formin of Oryza sativa, 788 a.a; source: E. coli Transetta (DE3), pET-30a(+), purified (Ni-NTA)
A word on the Kd: it is the concentration at which binding is half-saturated. B1 gave a Kd of 1510 ± 70 nM.

For the origin of these results see article PMC5529588, “OsFH15, a class I formin, interacts with microfilaments and microtubules to regulate grain size via affecting cell expansion in rice” (Scientific Reports, 2017).
